Experimental data as given in patent US20200179497.

Biological target: IVIg (Octagam)

B1: pCART203 (protein)
chain: MDDYQRNATEAYAKEVPHQITSVWTKGVTPPEQFTQGEDVIHAPYLAHQGWYDITKAFDGKDNLLCGAATAGNMLHWWFDQNKTEIEAYLSKHPEKQKIIFNNQELFDLKAAIDTKDSQTNSQLFNYFRDKAFPNLSARQLGVMPDLVLDMFINGYYLNVFKTQSTDVNRPYQDKDKRGGIFDAVFTRGDQTTLLTARHDLKNKGLNDISTIIKQELTEGRALALSHTYANVSISHVINLWGADFNAEGNLEAIYVTDSDANASIGMKKYFVGINAHGHVAISAKKIEGENIGAQVLGLFTLSSGKDIWQKLSGGGHHHHHH
- cleavage efficacy on SDS-PAGE, fold vs IdeS: a 2 fold increased efficacy compared to IdeS
- enzyme concentration at which IgG cleavage is seen on SDS-PAGE: demonstrates IgG cleavage at 0.5 ng/ml (lane 7)

B2: pCART208 (protein)
chain: MDDYQRNATEAYAKEVPHQITSVWTKGVTPPEQFTQGEDVIHAPYLAHQGWYDITKAFDGKDNLLCGAATAGNMLHWWFDQNKTEIEAYLSKHPEKQKIIIRNQELFDLKAAIDTKDSQTNSQLFNYFRDKAFPNLSARQLGVMPDLVLDMFINGYYLNVFKTQSTDVNRPYQDKDKRGGIFDAVFTRGDQTTLLTARHDLKNKGLNDISTIIKQELTEGRALALSHTYANVSISHVINLWGADFNAEGNLEAIYVTDSDANASIGMKKYFVGINAHGHVAISAKKIEGENIGAQVLGLFTLSSGKDIWQKLSGGGHHHHHH
- cleavage efficacy of the 1st heavy chain on SDS-PAGE, fold vs IdeS: approximately a 4 fold increase in cleavage efficacy of the 1st heavy chain

B3: BX1001865 (IdeS lacking tag, produced to GMP standard) (protein)
chain: DSFSANQEIRYSEVTPYHVTSVWTKGVTPPANFTQGEDVFHAPYVANQGWYDITKTFNGKDDLLCGAATAGNMLHWWFDQNKDQIKRYLEEHPEKQKINFNGEQMFDVKEAIDTKNHQLDSKLFEYFKEKAFPYLSTKHLGVFPDHVIDMFINGYRLSLTNHGPTPVKEGSKDPRGGIFDAVFTRGDQSKLLTSRHDFKEKNLKEISDLIKKELTEGKALGLSHTYANVRINHVINLWGADFDSNGNLKAIYVTDSDSNASIGMKKYFVGVNSAGKVAISAKEIKEDNIGAQVLGLFTLSTGQDSWNQTN
- enzyme concentration at which cleavage starts on SDS-PAGE: IdeS, which starts the cleavage at 0.9 ng/ml (lane 6) and has a dominating scIgG band at 1.9 ng/ml (lane 5)

B4: pCART124 (IdeS with additional N terminal methionine and histidine tag) (protein)
chain: MDSFSANQEIRYSEVTPYHVTSVWTKGVTPPANFTQGEDVFHAPYVANQGWYDITKTFNGKDDLLCGAATAGNMLHWWFDQNKDQIKRYLEEHPEKQKINFNGEQMFDVKEAIDTKNHQLDSKLFEYFKEKAFPYLSTKHLGVFPDHVIDMFINGYRLSLTNHGPTPVKEGSKDPRGGIFDAVFTRGDQSKLLTSRHDFKEKNLKEISDLIKKELTEGKALGLSHTYANVRINHVINLWGADFDSNGNLKAIYVTDSDSNASIGMKKYFVGVNSAGKVAISAKEIKEDNIGAQVLGLFTLSTGQDSWNQTNGGGHHHHHH
- enzyme concentration at which cleavage starts on SDS-PAGE: IdeS, which starts the cleavage at 0.9 ng/ml (lane 6) and has a dominating scIgG band at 1.9 ng/ml (lane 5)
